Consider 21 variants from the RNAGym collection of RNA variant scans (doi:10.1073/pnas.2313332121).

B1: TPR t1 (parent)
chain: GACCAAUCUGCCCUCAGAGCUCGAGAACAUCUUCGGAUGCAGAGGAGGCAGGCUUCGGUGGCGCGAUAGCGCCAACGUCCUCAACCUCCAAUGCAUCCCACCACAUGAUGAUGCCUGAAGAGCCUUGGUUUUUUG

Variants of B1 are the subject of the data set. Kind of data set: polymerase ribozyme fitness, log enrichment relative to wild type (log ratio); higher = more active; in vitro selection for triplet polymerase activity. The method in brief: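 After PCR construction and transcription, each subunit's mutant library from a heterodimeric triplet polymerase ribozyme was annealed with a biotinylated primer, the partner subunit and triplets. Incubation was frozen, at −7 °C, and extended constructs were gel-excised, bound to streptavidin beads and amplified by RT-PCR, in one selection round done in triplicate. Fitness is the logarithm of a genotype's enrichment divided by that of the wild type, from inverse-variance-weighted replicate averages of Illumina-sequenced inputs and outputs. The base of the logarithm is 2, and genotypes needed ≥10 input reads and ≥1 read per output.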
As to GACCAAUCUGCCCUCAGAGCUCGAGAACAUCUUCGGAUGCAGAGGAGGCGGGCUUGGGUGGCGCGAUAGCGCCAACGUCCUCAACCUCCAAUGCAUCCCACCCCAUGAUGAUGCGUGAAGAGCCUUGGUUUUUUG [A50G C56G A103C C115G], the “polymerase ribozyme fitness (log ratio)” value is -5.53. On to GACCAAUCUGCCCUCAGAGGUCGAGAACAUCUUCGGAUGCAGAGGAGGCAGGCUUCGGUGGCGCGAUAGCGCCAACGUCCUCAACCUCCAAUGCAUCCCACCACAUGAUGAUGCGUGAAGAGCCUUGGUUUUUUG [C20G C115G], for which the “polymerase ribozyme fitness (log ratio)” value was -4.85. Consider GACCAAUCUGCCCUCAGAGCUCGAGAACAUCUUCGUAUGCUGAGGAGGCAGGCUUCGGUGGCGCGAUAGCGCCAACGUCCUCAACCUCCAAUGCAUCCCACCACAUGAUGAUGCCUGAAGAGCCUUGGUUUUUUG [G36U A41U], for which the “polymerase ribozyme fitness (log ratio)” value was -2.77. Consider GACCAAUCUGCCCUCAGAGCUCGAGAACAUCUUCGGAUGCAGAGGAGGCAGGCUUCGGUGGCGCGAUAGCGUCAACGUCCUGAACCUCCAAUGCAUCCCACCACAUGAUGAUUCCUGAAGAGCCUUGGUUUUUUG [C72U C82G G113U], for which the “polymerase ribozyme fitness (log ratio)” value was -4.51. Turning to GACCAAUAGGCCCUCAGAGCUCGAGAACAUCUUCGGAUCCAGAGGAGGCAGGCUUCGGUGGCGCGAUAACGCCAACGCCCUCAACCUCCAAGGCAUCCCACCACAAGAUGAUGCCUGAAGAGCCUUGGUUUUUUG [C8A U9G G39C G69A U78C U92G U106A], the “polymerase ribozyme fitness (log ratio)” value is -7.09.

For the variant GACCAAUCUGCCCUCAGAGCUCGAGAACAUCUUCGGAUGCAGAGGAAGCAGGCUACGGUCGCGCGAUAGCGCCAACGUCCUCAACCUCCUAAGCAUCCCACCACAUGAUGAUGCCUGAAGAGCCUUGGUUUUUUG [G47A U55A G60C A90U U92A], the “polymerase ribozyme fitness (log ratio)” value is -4. Take GACCAAUCUGCCCUCAGAGCUCGAGAACAUCUUCGGAUGCAGAGGAGGCAGGCUUCGCUGGCGCGAUAGCGCCAACGUCCUCAACCUCCAAUGCAUCCCAUCACAUGAUGAUGCCUGAAGAACCUUGGUUUUUUG [G58C C101U G122A]: the “polymerase ribozyme fitness (log ratio)” value is -1.1. As for GACCAAUCUGCCCUCAGAGCUCGAGAACAUCUUCGGAUGCAGAGGAGGCAGGCUUCGGUGGCGCGAUAGCGCCAACGUCCUCAACCUCCAAUGCAUACCACCACAUGAUGAUGCCUGAAGAGGCUUGGUUUUUUG [C97A C123G], the figure is -3.19; as for GACCAAUCUGCCCUCAGAGCUCGAGAACAUCUUCGGAUGCAGAGGAGGCAGGCUUAGGUGGCGCGAUAUCGCCAACGUCCUCAACCUCCAAUGCAUCCCACCACAUGAUGAUGCCUGAGGAGCCUUGGUUUUUUG [C56A G69U A119G], 0.438. With GACCAAUCUGCCCUCAGAGCUCGAGAACAUCUUCGGAUGCAGAGGAGGCAGGCUUCGGUGGCGCGAUAGCGACAACGUCCUCAACCUCCAAUGCAUCCCACCACAUGAUGAUGCCUGAAGGGCCUUGGUUUUUUG [C72A A121G], the “polymerase ribozyme fitness (log ratio)” value is 1.6.

Turning to GACCAAUCGGCCCUCAGAGCUCGAGAACAUCUUCGGAUGCAGCGGAGGCAGGCUUCGGUGGCGCGAUAGCGCCAACGUCCUCAACCUCCAAUGCAUCCCACCACAUGAUGAUGCCUGAAGAGCCUUGGUUUUUUG [U9G A43C], the “polymerase ribozyme fitness (log ratio)” value is -1.01. Regarding GACCAAUCUGCCCUCAGAGCUCGAGGACAUCUUCGGAUGCAGAGGAGGCAGGCUUCGGUGGCGCGAUAGCGCCAACGUCCUCAACCUCCAAUGCAUCCCACCACAUGAGGAUGCCUGAAGAGCCUUGGUUUUUUG [A26G U109G], the “polymerase ribozyme fitness (log ratio)” value is -6.07.

As for GACCAAUCUGCCCUCAGAGCUCGAGAACAUCUUCGGAUGCAGAGGAGGCAGGCUUCGGUGGCGCGAUAGCGCCAACGUCCUCAACCUCCAAUGCAUCCCACCACAUGAUGAUGCUUGAAGAGCCUUGGUUUUUUG [C115U], the “polymerase ribozyme fitness (log ratio)” value is -0.935. With GACCAAUCUGCCCUCAGAGCUCGAGAACAUCUUCGUAUGCAGAGGAGGUAGGCUUCGGUGGCGCGAUAGCGCCAACGUCCUCAACCUCCAAUGCAUCCCACCACAUGAUGAUGCCUGAAGAGCCUUGGUUUUUUG [G36U C49U], the “polymerase ribozyme fitness (log ratio)” value is -2.72. Turning to GACCAAUCUGCCCUCAGAGCUCGAGAACAUCUUCGGAUGCAGAGGAGGCAGGCUUCGGUGGCGCGAUAGCGCUAACGUCCUCAACCUCCAAUGCAUCCCACCACAUGAUGAUGCCUGAACAGCCUUGGUUUUUUG [C73U G120C], the “polymerase ribozyme fitness (log ratio)” value was 1.2. With GACCAAUGUGCCCUCAGAUCUCGAGAACAUCUUCGGAUGCAGAGGAGGCAGGCUUCGGUGGCGCGAUAGCACCAACGUCCUCAACCUCCAAUGCAUCCCACCACAUGAUGAUACCUGAAGAGCCUUGGUCUUUUG [C8G G19U G71A G113A U130C], the “polymerase ribozyme fitness (log ratio)” value is -2.08.

Consider GACCAAUCUUCCCUCAGAGCUCGAGAACAUCUUCGGAUGCAGAGGAGGCAGGCUUCGGUGGCGCGAUAGCGUCAACGUCCUCAACCUCCAAUGCAUCCCACCACAUGAUGAUGCCUGAAGAGCCUUGGUUUUUUG [G10U C72U], for which the “polymerase ribozyme fitness (log ratio)” value is -0.415. Take GACCAAUCUACCCUCAGAGCUCGAGAACAUCUUCGGAUGCAGAGGAGGCAGGCUUCGGUGGCGCGAUAGCGCCAACGUCCUCAACAUCCAAUGCAUCCCACCACAUGAUGAUGCCUGAAGAGCCUUGGUUUUUUG [G10A C86A]: the “polymerase ribozyme fitness (log ratio)” value was -0.0637. Consider GACCAAUCUGCCCUCAGAGCUCGAGAACAUCUUCGGAUGCAGAGGAGGCAGGCUACAGUGGCGCGAUAGCGCCAACGUCCUCAACCUCCAAUGCAUCCCACCACAUGAUGAGGCCUGAAGAGCCUUGGUUUUUUG [U55A G57A U112G], for which the “polymerase ribozyme fitness (log ratio)” value is -0.322. In the case of GACCAAUCUGCCCUCAGAGCUCGAGAACAUCUUCGGAUGCAGAGGAGGCAGGCUUCGGUGGCGCGAUAGCGCCAACGUCCUCAACCUCCAAUGCAUCCCCCCACAUGAUGAUGCCUGAAGAGCAUUGGUUUUUUG [A100C C124A], the “polymerase ribozyme fitness (log ratio)” value was 0.995. As to GACCAAUCUGCCCUCAGAGCUCGAGAACAUCUUCGGAUGCAGAGGAGGCAGGCUUCGGUGGCGCGAUAGCGCCAACGUCCUCAACCUCCAAUGCAUCCCAACACAUGAUGAUGCCUGAAGAGCCUUGGUUUUUUG [C101A], the “polymerase ribozyme fitness (log ratio)” value is -1.14.
